From publication PMC8902225 come the findings set out here.

For experiment [1], the target named is equine follicle-stimulating hormone receptor A306T (equine) (UniProt P47799).
The target in experiment [2] is equine follicle-stimulating hormone receptor D566G (equine) (UniProt P47799).
The target in experiment [3] is wild-type equine follicle-stimulating hormone receptor (equine) (UniProt P47799).
The target in experiment [4] is equine follicle-stimulating hormone receptor N191I (equine) (UniProt P47799).
Chain of equine follicle-stimulating hormone receptor N191I (equine) (P47799 18-694 N191I): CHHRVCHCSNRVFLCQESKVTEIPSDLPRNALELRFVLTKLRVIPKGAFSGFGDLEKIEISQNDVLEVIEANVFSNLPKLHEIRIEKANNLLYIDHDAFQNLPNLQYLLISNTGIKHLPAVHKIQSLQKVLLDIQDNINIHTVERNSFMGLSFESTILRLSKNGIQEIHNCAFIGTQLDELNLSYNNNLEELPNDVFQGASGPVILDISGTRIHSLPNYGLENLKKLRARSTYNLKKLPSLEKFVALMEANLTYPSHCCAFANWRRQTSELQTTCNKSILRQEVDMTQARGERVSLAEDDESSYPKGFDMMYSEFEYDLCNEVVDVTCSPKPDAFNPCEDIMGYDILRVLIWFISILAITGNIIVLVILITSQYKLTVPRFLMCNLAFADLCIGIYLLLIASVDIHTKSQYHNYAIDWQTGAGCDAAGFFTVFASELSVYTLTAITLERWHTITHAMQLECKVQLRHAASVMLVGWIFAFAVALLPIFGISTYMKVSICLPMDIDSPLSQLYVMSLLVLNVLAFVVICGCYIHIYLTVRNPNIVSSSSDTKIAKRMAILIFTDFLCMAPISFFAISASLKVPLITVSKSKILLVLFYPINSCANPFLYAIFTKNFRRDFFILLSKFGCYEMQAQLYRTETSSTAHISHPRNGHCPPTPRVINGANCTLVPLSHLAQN
Experiment [5] deals with equine follicle-stimulating hormone receptor R633H (equine) (UniProt P47799).
Chain of equine follicle-stimulating hormone receptor R633H (equine) (P47799 18-694 R633H): as the sequence (P47799 18-694 N191I) above, with I174N, R616H counted along it
For experiment [6], the target named is wild-type equine follicle-stimulating hormone receptor (equine) (UniProt P47799). This is another data set of the same source.

Chain of Human FSH (follicle-stimulating hormone) (P01215 25-116): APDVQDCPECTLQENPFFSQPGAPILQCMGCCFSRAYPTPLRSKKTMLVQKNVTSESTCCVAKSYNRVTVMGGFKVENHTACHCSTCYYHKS
Chain of Human FSH (follicle-stimulating hormone) (P01225 19-129): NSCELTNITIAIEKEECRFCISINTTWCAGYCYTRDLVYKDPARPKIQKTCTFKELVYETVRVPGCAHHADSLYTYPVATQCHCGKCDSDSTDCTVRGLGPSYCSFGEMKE
Chain of wild-type equine follicle-stimulating hormone receptor (equine) (P47799 18-694): as the sequence (P47799 18-694 N191I) above, with I174N counted along it
Chain of equine follicle-stimulating hormone receptor D566G (equine) (P47799 18-694 D566G): as the sequence (P47799 18-694 N191I) above, with I174N, D549G counted along it
Chain of equine follicle-stimulating hormone receptor A306T (equine) (P47799 18-694 A306T): as the sequence (P47799 18-694 N191I) above, with I174N, A289T counted along it

Turning to “Human FSH (follicle-stimulating hormone) (from UniProt P01215 25-116; P01225 19-129) (ligand)”, the EC50 of FSH-stimulated cAMP accumulation (HTRF) in transfected PathHunter EA-parental CHO-K1 cells in experiment [1] came to 0.751 µg/mL; in experiment [2], 0.648 µg/mL; in experiment [3], 0.765 µg/mL; in experiment [4], 3.91 µg/mL; in experiment [5], 1.16 µg/mL. For the same substance, the EC50 of FSH-stimulated cAMP accumulation (HTRF) in transfected PathHunter EA-parental CHO-K1 cells (series with the inactivating mutants) in experiment [6] amounted to 0.718 µg/mL.
